The results in this text go back to patent publication US20250026849A1 (ARCELLX, published 2025).

The chains are these.
B1: D-domain SEQ ID NO: 182 (designed binder)
chain: MGSWSEFWDRLYAIRIRLDALGGSEAELAAFEKEIAAFESELQAYKGKGNPEVEKLRSVAARIRNWLQAYRHN
B2: D-domain SEQ ID NO: 184 (designed binder)
chain: B1 chain with W8N, Y12D, I16W, K55W, S58Q, R62T, N65Y, W66R
B3: D-domain SEQ ID NO: 211 (designed binder)
chain: B1 chain with S5T, D9E, R15E, I16Y, D19F, R62T, N65Y, W66E
B4: D-domain SEQ ID NO: 183 (designed binder)
chain: B1 chain with D9F, Y12G, I16N, S58D, R62H, N65H
B5: D-domain SEQ ID NO: 212 (designed binder)
chain: B1 chain with S5N, D9E, R15E, I16L, D19F, S58M, V59T, R62Y, W66E
B6: D-domain SEQ ID NO: 215 (designed binder)
chain: B1 chain with S5H, R15E, I16F, D19F, K55S, S58Q, R62K, N65W, W66H
B7: D-domain SEQ ID NO: 210 (designed binder)
chain: B1 chain with S5M, R15E, I16F, D19F, S58R, R62T, W66E
B8: D-domain SEQ ID NO: 216 (designed binder)
chain: MGSWDEFEFRLGALRWRLIALGGSEAELAAFEKEIAAFESELQAYKGKGNPEVEYLRFGAAHIRHILQAYRHN
B9: D-domain SEQ ID NO: 217 (designed binder)
chain: B8 chain with D5T, E8Y, F9H, G12Y, L14I, W16E, I19S, I66L
B10: D-domain SEQ ID NO: 218 (designed binder)
chain: B8 chain with D5V, F9T, G12D, L14I, W16M, I19G, H65A, I66L
B11: D-domain SEQ ID NO: 172 (designed binder)
chain: MGSWNEFRLRLWAITERLRALGGSEAELAAFEKEIAAFESELQAYKGKGNPEVECLRAEAAWIRTMLQAYRHN
B12: D-domain SEQ ID NO: 175 (designed binder)
chain: MGSWYEFAHRLEAIEWRLIALGGSEAELAAFEKEIAAFESELQAYKGKGNPEVEELRQYAAAIRNYLQAYRHN
B13: D-domain SEQ ID NO: 171 (designed binder)
chain: MGSWIEFHQRLNAIFNRLRALGGSEAELAAFEKEIAAFESELQAYKGKGNPEVEWLRHHAAYIREMLQAYRHN
B14: D-domain SEQ ID NO: 179 (designed binder)
chain: B13 chain with I5V, H8W, Q9E, N12D, F15D, R19G, H58W, E65G, M66Y
B15: D-domain SEQ ID NO: 180 (designed binder)
chain: MGSWAEFWDRLDAIDSRLNALGGSEAELAAFEKEIAAFESELQAYKGKGNPEVEYLREWAAYIRGYLQAYRHN
B16: D-domain SEQ ID NO: 176 (designed binder)
chain: MGSWYEFDTRLGAIRNRLGALGGSEAELAAFEKEIAAFESELQAYKGKGNPEVEWLRFQAAYIRFLLQAYRHN
B17: D-domain SEQ ID NO: 177 (designed binder)
chain: B16 chain with D8W, T9V, G12T, N16W, G19E, F58E, Y62S, F65W, L66V
B18: D-domain SEQ ID NO: 181 (designed binder)
chain: MGSWAEFDLRLRAIAKRLVALGGSEAELAAFEKEIAAFESELQAYKGKGNPEVEMLRLDAAYIRGVLQAYRHN
B19: D-domain SEQ ID NO: 149 (designed binder)
chain: MGSWMEFEGRLPAILARLRALGGSEAELAAFEKEIAAFESELQAYKGKGNPEVEHLRDKAAYIRWMLQAYRHN
B20: D-domain SEQ ID NO: 148 (designed binder)
chain: B19 chain with E8Q
B21: D-domain SEQ ID NO: 166 (designed binder)
chain: B16 chain with Y5M, T9E, G12W, R15K, N16K, G19R, W55F, F58H, F65M
B22: D-domain SEQ ID NO: 160 (designed binder)
chain: B19 chain with M5V, G9W, P12E, L15V, A16V, W65Y
B23: D-domain SEQ ID NO: 158 (designed binder)
chain: B13 chain with I5E, H8D, Q9D, F15V, N16Y, W55M, H58D, H59Q, E65L
B24: D-domain SEQ ID NO: 167 (designed binder)
chain: B19 chain with M5H, E8D, P12S, L15K, A16R, R19W, K59Q, W65Y
B25: D-domain SEQ ID NO: 162 (designed binder)
chain: B19 chain with E8K, G9H, P12A, L15T, A16F, H55L, W65L, M66L
B26: D-domain SEQ ID NO: 155 (designed binder)
chain: B19 chain with M5I, E8D, G9Y, P12K, A16H, H55G, W65F, M66L
B27: D-domain SEQ ID NO: 151 (designed binder)
chain: B19 chain with M5V, E8D, G9M, P12Q, A16E, K59S, W65L
B28: D-domain SEQ ID NO: 156 (designed binder)
chain: B19 chain with M5Y, G9D, P12L, L15K, A16V, H55Y, K59Q, W65F
B29: D-domain SEQ ID NO: 150 (designed binder)
chain: B19 chain with M5F, E8Q, G9N, P12Q, A16F, H55N, W65L
B30: D-domain SEQ ID NO: 153 (designed binder)
chain: B19 chain with E8N, G9V, P12R, A16D, R19H, H55L, W65F
B31: D-domain SEQ ID NO: 170 (designed binder)
chain: B19 chain with M5V, E8D, G9N, P12Y, L15V, A16D, D58Q, W65L, M66I
B32: D-domain SEQ ID NO: 157 (designed binder)
chain: B19 chain with M5Y, E8Q, G9D, P12S, L15T, A16T, H55L, W65F
B33: D-domain SEQ ID NO: 163 (designed binder)
chain: B19 chain with P12H, L15K, A16R, H55V, K59Q, W65L, M66L
B34: D-domain SEQ ID NO: 161 (designed binder)
chain: B19 chain with M5Y, G9H, P12K, L15V, A16S, R19G, W65Y
B35: D-domain SEQ ID NO: 168 (designed binder)
chain: B19 chain with M5Y, E8D, P12Q, L15I, D58F, K59R, M66I
B36: D-domain SEQ ID NO: 164 (designed binder)
chain: MGSWSEFVFRLDTIKSRLRALGGSEAELAAFEKEIAAFESELQAYKGKGNPEVETLRDQAAYIRLMLQAYRHN
B37: D-domain SEQ ID NO: 165 (designed binder)
chain: B16 chain with T9E, G12S, R15K, N16L, G19R, W55V, F58A, F65A, L66I
B38: D-domain SEQ ID NO: 159 (designed binder)
chain: B19 chain with M5V, G9Q, P12H, L15V, A16V, K48G, H55N, K59Q, W65F
B39: D-domain SEQ ID NO: 152 (designed binder)
chain: B19 chain with M5V, E8N, G9A, P12D, A16F, K59Q, W65L
B40: D-domain SEQ ID NO: 154 (designed binder)
chain: B19 chain with M5I, E8D, G9T, P12A, L15V, A16H, H55L, W65Y
B41: D-domain SEQ ID NO: 219 (designed binder)
chain: MGSWGEFDVRLFAIRERLSALGGSEAELAAFEKEIAAFESELQAYKGKGNPEVEYLRGYAAQIRSFLQAYRHN
B42: D-domain SEQ ID NO: 223 (designed binder)
chain: B41 chain with D8N, V9G, F12G, S19Q, Y55F, G58A, Q62S, S65A, F66V
B43: D-domain SEQ ID NO: 221 (designed binder)
chain: B41 chain with G5S, V9G, F12G, R15W, E16D, S19Y, G58D, Y59R, S65E
B44: D-domain SEQ ID NO: 222 (designed binder)
chain: B41 chain with D8E, V9G, F12H, E16S, Y55V, Q62W, S65A, F66L
B45: D-domain SEQ ID NO: 220 (designed binder)
chain: B41 chain with G5V, V9E, F12S, S19D, G58L, S65V
B46: D-domain SEQ ID NO: 169 (designed binder)
chain: MGSWFEFDKRLYAIIHRLRALGGSEAELAAFEKEIAAFESELQAYKGKGNPEVEKLRYKAAIIRLYLQAYRHN
B47: D-domain SEQ ID NO: 178 (designed binder)
chain: B46 chain with K9R, Y12K, I15D, H16R, R19M, K55W, Y58M, K59Q, L65N
B48: D-domain SEQ ID NO: 203 (designed binder)
chain: MGSWTEFWTRLNAIYERLDALGGSEAELAAFEKEIAAFESELQAYKGKGNPEVEKLRFTAASIRMYLQAYRHN
B49: D-domain SEQ ID NO: 173 (designed binder)
chain: MGSWYEFWLRLSAISYRLQALGGSEAELAAFEKEIAAFESELQAYKGKGNPEVEWLRKEAAEIRSWLQAYRHN
B50: D-domain SEQ ID NO: 213 (designed binder)
chain: B49 chain with L9K, S12Y, S15E, Q19F, W55A, E59V, E62K, S65E, W66Q
B51: D-domain SEQ ID NO: 174 (designed binder)
chain: B12 chain with A8Q, H9L, E12W, E15H, E55W, Q58M, Y59R, A62E, Y66E
B52: D-domain SEQ ID NO: 224 (designed binder)
chain: MGSWWEFTFRLAAIEFRLEALGGSEAELAAFEKEIAAFESELQAYKGKGNPEVEDLRAIAAEIRKSLQAYRHN

Residue numbers refer to the chain shown, from its start.

In this assay the target is T1, BCMA (Homo sapiens (Human), UniProt Q02223 1-54, limits assumed).
T1 sequence: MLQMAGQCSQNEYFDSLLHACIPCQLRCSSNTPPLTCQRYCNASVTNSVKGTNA
Put plainly: ELISA, format not described. Set-up: unit not given here. Background: An ELISA detects its analyte on a solid surface through an enzyme-linked reagent.
For B1, the ELISA_avg was 12.5.

In turn, B2 displayed an ELISA_avg of 13.6.

On to B3, for which the ELISA_avg was found to be 12.7.

As for B4, the ELISA_avg is 14.9.

Molecule B5 had an ELISA_avg of 9.95.

On to B6, for which the ELISA_avg was found to be 7.3.

Molecule B7 registered an ELISA_avg of 11.7.

B8 registered an ELISA_avg of 9.2.

The molecule B9 gave an ELISA_avg of 9.63.

For the molecule B10, the ELISA_avg was 14.1.

In turn, B11 returned an ELISA_avg of 3.87.

Molecule B12 returned an ELISA_avg of 9.48.

Consider B13, for which the ELISA_avg is 7.34.

As for B14, the ELISA_avg came to 11.4.

On to B15, for which the ELISA_avg was 18.2.

B16 had an ELISA_avg of 13.9.

As for B17, the ELISA_avg was determined as 5.72.

For B18, the ELISA_avg turned out to be 4.09.

For the molecule B19, the ELISA_avg was found to be 3.93.

As to B20, the ELISA_avg came to 8.32.

Regarding B21, the ELISA_avg is 9.53.

For the molecule B22, the ELISA_avg is 14.9.

For B23, the ELISA_avg turned out to be 18.6.

B24 registered an ELISA_avg of 5.4.

Molecule B25 came in with an ELISA_avg of 6.06.

As for B26, the ELISA_avg is 11.9.

As to B27, the ELISA_avg was 23.5.

With B28, the ELISA_avg was found to be 17.6.

B29 yielded an ELISA_avg of 5.39.

B30 showed an ELISA_avg of 15.6.

B31 yielded an ELISA_avg of 11.7.

Consider B32, for which the ELISA_avg came to 10.1.

On to B33, for which the ELISA_avg turned out to be 7.33.

B34 had an ELISA_avg of 4.55.

Molecule B35 registered an ELISA_avg of 3.29.

Turning to B36, the ELISA_avg is 19.9.

Take B37: the ELISA_avg was 16.9.

B38 gave an ELISA_avg of 17.7.

In turn, B39 had an ELISA_avg of 13.5.

In turn, B40 gave an ELISA_avg of 13.9.

Molecule B41 registered an ELISA_avg of 7.35.

Take B42: the ELISA_avg amounted to 4.95.

B43 registered an ELISA_avg of 10.

B44 returned an ELISA_avg of 6.17.

B45 came in with an ELISA_avg of 5.61.

B46 displayed an ELISA_avg of 11.8.

Molecule B47 showed an ELISA_avg of 6.16.

B48 returned an ELISA_avg of 8.43.

B49 yielded an ELISA_avg of 14.5.

In turn, B50 displayed an ELISA_avg of 14.8.

As to B51, the ELISA_avg worked out at 20.6.

On to B52, for which the ELISA_avg was 5.75.
